Measured values: US20020159989A1 (BETH ISRAEL DEACONESS MEDICAL CENTER, published 2002)

Target: T1, mouse TSP-1-TSR, expressed as a GAL4 DNA binding domain fusion (pAS2-1TSP1 type 1 construct) (mouse, UniProt P04386 1-147; P35441 377-549)
T1 construct: range 1-147;domain: TSR; also called TSR domain of TSP-1; bait
Assay: yeast two-hybrid counter-screen (HIS3 / lacZ reporters)

T1 sequence (P04386 other isoform, or with tags, fused parts or gaps limits assumed): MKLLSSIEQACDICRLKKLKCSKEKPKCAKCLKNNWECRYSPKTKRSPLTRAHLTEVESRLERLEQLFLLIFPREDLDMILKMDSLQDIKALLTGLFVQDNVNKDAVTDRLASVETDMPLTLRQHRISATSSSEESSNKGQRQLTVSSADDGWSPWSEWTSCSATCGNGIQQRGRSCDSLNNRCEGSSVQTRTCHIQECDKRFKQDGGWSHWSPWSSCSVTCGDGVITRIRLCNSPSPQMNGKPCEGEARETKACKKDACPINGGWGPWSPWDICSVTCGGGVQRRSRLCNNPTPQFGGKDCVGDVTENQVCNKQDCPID

binding result: no binding
B1: peptide of SEQ ID NO:1, expressed as a GAL4 activation domain fusion (prey clone from the pACT2 NIH3T3 cDNA library) (peptide)
chain: ANFNQSGNIADSSLSFTFTNSSNGPNLITTQTNSQALSQPIASSNVHDNFMNNEITASKIDDGNNSKPLSPGWTDQTAYNAFGITTGMFNTTTMDDVYNYLFDDEDTPPNPKKEAPWNCCPVSCCGNCCFFRALQSCPQG
notes: range 768-881; Yeast two-hybrid prey; also called peptide of the invention
